# Source: patent publication US20040133357A1 (ABMAXIS, published 2004)
# Biological target: T1, purified recombinant human VEGF165 (human, UniProt P15692 27-191, glycosylated)
# T1 construct: mature; Bought from Calbiochem; also called VEGF protein (Calbiochem); homodimeric VEGF protein
# Experiment: SPR (BIAcore), purified scFv over VEGF immobilized on CM5 chip, 25 C
# Experimental: (§1) Antibody fragments in the format of single chain were expressed as described below and purified. The measurement was done by measuring the change of SPR units (y-axis) vs time (x-axis) when a purified antibody binds its antigen (VEGF) immobilized on the CM5 biochip at 25° C. Kd values were calculated by the […].
# (§2) BIAcore Biosensor Assay was used to determine antibody affinity. VEGF protein (purchased from Calbiochem) was coupled to a CM-5 biosensor ship by amine coupling. After immobilization, CM-5 chips with 200 to 1000 response unites of VEGF were kept at 4° C. before use. All experiments were performed at 25° C. or 35° C. Each sample in PBS buffer was injected over VEGF surface at a flow rate of 20 ul/min using Biacore 1000 (Biacore AB, Sweden), and bound antibodies were removed from chip by 10 ul of glycine-HCl, PH 1.5 at the end of each cycle. Each sensorgram was recorded and normalized to a PBS base line.
# T1 sequence (P15692 other isoform, or with tags, fused parts or gaps limits assumed): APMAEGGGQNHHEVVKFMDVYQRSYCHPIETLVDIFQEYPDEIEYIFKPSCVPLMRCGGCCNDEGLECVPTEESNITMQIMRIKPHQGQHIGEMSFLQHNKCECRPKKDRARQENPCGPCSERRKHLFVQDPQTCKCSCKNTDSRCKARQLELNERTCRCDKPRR
Kd,hAB1 Kd/Variant Kd,koff,kon,Binder
5.9 nM,2.2,7.2e-05 s⁻¹,12200 M⁻¹ s⁻¹,"hAB5 (scFv, Single chain format; not shown: HA-His6 tag at C-terminus) scFv: EVQLVQSGGGVVQPGGTLRLTCAASGYTFTNYGMNWVRQAPGKGLEWVGWINTYTGEPTYAADFKRRVTFSLDTSKSTAYLQMNSLRAEDTAVYYCAKYPHYYGSSHWYFDVWGQGTLVTVSSGGGGSGGGGSGGGGSDIQMTQSPSSLSASVGDRVTITCSASQDISNYLNWYQQKPGKAPKVLIYFTSSLHSGVPSRFSGSGSGTDFTLTISSLQPEDFATYYCQQYSTVPWTFGQGTKVEIK"
2.2 nM,6.3,3e-06 s⁻¹,1100 M⁻¹ s⁻¹,"hAB10 (scFv, Single chain format; not shown: HA-His6 tag at C-terminus) scFv: EVQLVESGGGLVQPGGSLRLSCAASGYTFTNYGMNWVRQAPGKGLEWVGWINTYTGEPTYAADFKRRFTFSLDTSKSTAYLQMNSLRAEDTAVYYCAKYPYYYGTSHWYFDVWGQGTLVTVSSGGGGSGGGGSGGGGSDIQMTQSPSSLSASVGDRVTITCSASQDISNYLNWYQQKPGKAPKVLIYFTSSLHSGVPSRFSGSGSGTDFTLTISSLQPEDFATYYCQQYSTVPWTFGQGTKVEIK"
5.4 nM,2.6,8.7e-05 s⁻¹,15900 M⁻¹ s⁻¹,"hAB11 (scFv, Single chain format; not shown: HA-His6 tag at C-terminus) scFv: EVQLVESGGGLVQPGGSLRLSCAASGYTFTNYGMNWVRQAPGKGLEWVGWINTYTGEPTYAADFKRRFTFSLDTSKSTAYLQMNSLRAEDTAVYYCAKYPHYYGRSHWYFDVWGQGTLVTVSSGGGGSGGGGSGGGGSDIQMTQSPSSLSASVGDRVTITCSASQDISNYLNWYQQKPGKAPKVLIYFTSSLHSGVPSRFSGSGSGTDFTLTISSLQPEDFATYYCQQYSTVPWTFGQGTKVEIK"
4.9 nM,2.7,1.4e-05 s⁻¹,2900 M⁻¹ s⁻¹,"hAB9 (scFv, Single chain format; not shown: HA-His6 tag at C-terminus) scFv: EVQLVQSGGGVVQPGGSLRLSCAASGYTFTNYGMNWVRQAPGKGLEWVGWINTYTGEPTYAADFKRRFTFSLDTSKSTAYLQMNSLRAEDTAVYYCAKYPYYYGRSHWYFDVWGQGTLVTVSSGGGGSGGGGSGGGGSDIQLTQSPSSLSASAGDRVTISCSASQDISNYLNWYQQKPGKAPQLLIYFTSSLHSGVPSRFSGSGSGTDFTLTISSLQPEDFATYYCQQYSTVPWTFGQGTKVEIK"
1.5 nM,9.2,3e-06 s⁻¹,2300 M⁻¹ s⁻¹,"hAB12 (scFv, Single chain format; not shown: HA-His6 tag at C-terminus) scFv: EVQLVESGGGLVQPGGSLRLSCAASGYTFTNYGMNWVRQAPGKGLEWVGWINTYTGEPTYAADFKRRFTFSLDTSKSTAYLQMNSLRAEDTAVYYCAKYPYYYGRSHWYFDVWGQGTLVTVSSGGGGSGGGGSGGGGSDIQMTQSPSSLSASVGDRVTITCSASQDISNYLNWYQQKPGKAPKVLIYFTSSLHSGVPSRFSGSGSGTDFTLTISSLQPEDFATYYCQQYSTVPWTFGQGTKVEIK"

# Biological target: T1, purified recombinant human VEGF165
# Experiment: SPR (BIAcore), purified scFv over VEGF immobilized on CM5 chip, 35 C
# Experimental: as §1, with “35°” for “25°”
# as §2
Kd,hAB1 Kd/Variant Kd,koff,kon,Binder
3.7 nM,11.2,8.6e-05 s⁻¹,23400 M⁻¹ s⁻¹,"hAB15 (scFv, Single chain format; not shown: HA-His6 tag at C-terminus) scFv: EVQLVQSGGGVVQPGGSLRLSCAASGYTFTNYGMNWIRQAPGKGLEWVGWINTYTGEPTYAADFKRRVTFSLDTSKSTAYLQLNSLRAEDTAVYYCAKYPYYYGRSHWYFDVWGQGTLVTVSSGGGGSGGGGSGGGGSDIVMTQSPSTLSASPGERATITCHASQSISTYLAWYQQKPGQAPRVLIYGASNLASGVPNRFSGSGSGTDFTLTISSLQPEDFAVYYCQQYNSAPWTFGGGTKVEIK"
0.7 nM,59.1,6.2e-05 s⁻¹,82800 M⁻¹ s⁻¹,"hAB35 (scFv, Single chain format; not shown: HA-His6 tag at C-terminus) scFv: EVQLVQSGGGVVQPGGSLRLSCAASGYDFTHFGLNWIRQAPGKGPEWVGWINTYTGEPTYAQDFKRRVTFSLDTSKSTAYLQLNSLRAEDTAVYYCAKYPYYYGRSHWYFDVWGQGTLVTVSSGGGGSGGGGSGGGGSDIVMTQSPSTLSASPGERATITCNASQSIGSYLAWYQQKPGQAPKVLIYGASNLASGVPSRFSGSRSGTDFTLTISSLQPEDFAVYYCQQYNSTPWTFGGGTKLEIK"
0.9 nM,46,4.8e-05 s⁻¹,50000 M⁻¹ s⁻¹,"hAB38 (scFv, Single chain format; not shown: HA-His6 tag at C-terminus) scFv: EVQLVQSGGGVVQPGGSLRLSCAASGYNFSHFGLNWLRQAPGKGPEWVGWINTYTGEPTYAPEFKRRVTFSLDTSKSTAYLQLNSLRAEDTAVYYCAKYPYYYGRSHWYFDVWGQGTLVTVSSGGGGSGGGGSGGGGSDIVMTQSPSTLSASPGERATITCNASQSIGSYLAWYQQKPGQAPKVLIYGASNLASGVPSRFSGSRSGTDFTLTISSLQPEDFAVYYCQQYNSTPWTFGGGTKLEIK"
0.8 nM,51.8,4.4e-05 s⁻¹,57300 M⁻¹ s⁻¹,"hAB37 (scFv, Single chain format; not shown: HA-His6 tag at C-terminus) scFv: EVQLVQSGGGVVQPGGSLRLSCAASGYNFSHFGLNWLRQAPGKGLEWVGWINTYNGETTYAPDFKRRVTFSLDTSKSTAYLQLNSLRAEDTAVYYCAKYPYYYGRSHWYFDVWGQGTLVTVSSGGGGSGGGGSGGGGSDIVMTQSPSTLSASPGERATITCNASQSIGSYLAWYQQKPGQAPKVLIYGASNLASGVPSRFSGSRSGTDFTLTISSLQPEDFAVYYCQQYNSTPWTFGGGTKLEIK"
1.6 nM,25.9,4.7e-05 s⁻¹,29300 M⁻¹ s⁻¹,"hAB16 (scFv, Single chain format; not shown: HA-His6 tag at C-terminus) scFv: EVQLVQSGGGVVQPGGSLRLSCAASGYTFTNYGMNWIRQAPGKGLEWVGWINTYTGEPTYAADFKRRVTFSLDTSKSTAYLQLNSLRAEDTAVYYCAKYPYYYGRSHWYFDVWGQGTLVTVSSGGGGSGGGGSGGGGSDIVMTQSPSTLSASPGERATITCNASQSIGSYLAWYQQKPGQAPKVLIYGASNLASGVPSRFSGSRSGTDFTLTISSLQPEDFAVYYCQQYNSTPWTFGGGTKLEIK"
0.7 nM,59.1,3.7e-05 s⁻¹,47500 M⁻¹ s⁻¹,"hAB36 (scFv, Single chain format; not shown: HA-His6 tag at C-terminus) scFv: EVQLVQSGGGVVQPGGSLRLSCAASGYDLSHYGLNWIRQAPGKGPEWVGWINTYTGEPTYAPDFTRRVTFSLDTSKSTAYLQLNSLRAEDTAVYYCAKYPYYYGRSHWYFDVWGQGTLVTVSSGGGGSGGGGSGGGGSDIVMTQSPSTLSASPGERATITCNASQSIGSYLAWYQQKPGQAPKVLIYGASNLASGVPSRFSGSRSGTDFTLTISSLQPEDFAVYYCQQYNSTPWTFGGGTKLEIK"
1.8 nM,23,4.8e-05 s⁻¹,28400 M⁻¹ s⁻¹,"hAB39 (scFv, Single chain format; not shown: HA-His6 tag at C-terminus) scFv: EVQLVQSGGGVVQPGGSLRLSCAASGYDFTHFGLNWVRQAPGKGLEWVGWVNTYTGETTYAHEFKRRVTFSLDTSKSTAYLQLNSLRAEDTAVYYCAKYPYYYGRSHWYFDVWGQGTLVTVSSGGGGSGGGGSGGGGSDIVMTQSPSTLSASPGERATITCNASQSIGSYLAWYQQKPGQAPKVLIYGASNLASGVPSRFSGSRSGTDFTLTISSLQPEDFAVYYCQQYNSTPWTFGGGTKLEIK"
3.6 nM,11.5,6.2e-05 s⁻¹,17100 M⁻¹ s⁻¹,"hAB14 (scFv, Single chain format; not shown: HA-His6 tag at C-terminus) scFv: EVQLVQSGGGVVQPGGSLRLSCAASGYTFTNYGMNWIRQAPGKGLEWVGWINTYTGEPTYAADFKRRVTFSLDTSKSTAYLQLNSLRAEDTAVYYCAKYPYYYGRSHWYFDVWGQGTLVTVSSGGGGSGGGGSGGGGSAIRMTQSPSSVSASVGDTVTIACRASQAIRNDLTWYQQKPGTAPKLLIYGATTLQSGVPSRFSGSGSGTDFTLTISSLQPEDFATYYCQQSSTTPWTFGQGTKVDIK"
1.1 nM,37.6,1.7e-05 s⁻¹,15800 M⁻¹ s⁻¹,"hAB8 (scFv, Single chain format; not shown: HA-His6 tag at C-terminus) scFv: EVQLVQSGGGVVQPGGSLRLSCAASGYTFTNYGMNWIRQAPGKGLEWVGWINTYTGEPTYAADFKRRVTFSLDTSKSTAYLQLNSLRAEDTAVYYCAKYPYYYGRSHWYFDVWGQGTLVTVSSGGGGSGGGGSGGGGSDIQMTQSPSSLSASVGDRVTITCSASQDISNYLNWYQQKPGKAPKVLIYFTSSLHSGVPSRFSGSGSGTDFTLTISSLQPEDFATYYCQQYSTVPWTFGQGTKVEIK"
1.1 nM,37.6,9e-06 s⁻¹,8500 M⁻¹ s⁻¹,"hAB7 (scFv, Single chain format; not shown: HA-His6 tag at C-terminus) scFv: EVQLVQSGGGVVQPGGSLRLSCAASGYTFTNYGMNWVRQAPGKGLEWVGWINTYTGEPTYAADFKRRFTFSLDTSKSTAYLQMNSLRAEDTAVYYCAKYPYYYGRSHWYFDVWGQGTLVTVSSGGGGSGGGGSGGGGSDIQMTQSPSSLSASVGDRVTITCSASQDISNYLNWYQQKPGKAPKVLIYFTSSLHSGVPSRFSGSGSGTDFTLTISSLQPEDFATYYCQQYSTVPWTFGQGTKVEIK"
